Results reported in patent publication US20170283484A1.

biological target: HCV E2 envelope glycoprotein (hepatitis C virus) (UniProt P27958); assay: ELISA of E2 on AP33 alanine mutants
Sequence (P27958 384-746 limits assumed): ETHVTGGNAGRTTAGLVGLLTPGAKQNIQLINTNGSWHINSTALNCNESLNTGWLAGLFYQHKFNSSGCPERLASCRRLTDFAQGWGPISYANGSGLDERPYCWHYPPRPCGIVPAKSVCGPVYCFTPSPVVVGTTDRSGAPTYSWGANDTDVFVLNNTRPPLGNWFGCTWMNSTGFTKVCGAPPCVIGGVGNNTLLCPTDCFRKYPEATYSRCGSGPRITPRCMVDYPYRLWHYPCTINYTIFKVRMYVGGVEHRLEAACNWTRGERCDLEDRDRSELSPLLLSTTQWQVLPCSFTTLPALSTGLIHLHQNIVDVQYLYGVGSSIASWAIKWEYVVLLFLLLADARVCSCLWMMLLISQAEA

Substance	reduction of binding relative to WT AP33 [%]
AP33 mutant FL32A (antibody)	90
AP33 mutant IH95A (antibody)	90
AP33 mutant NL91A (antibody)	90
AP33 mutant WL96A (antibody)	90
AP33 mutant YH33A (antibody)	90
AP33 mutant YH58A (antibody)	90

biological target: AP33 antibody (wild type mouse monoclonal); assay: peptide inhibition ELISA: antibody pre-incubated with peptide, then transferred to E2-coated plates (competitor: E2) [panel AP33]
Sequence (VH, as listed by the source, chain 1 of 2): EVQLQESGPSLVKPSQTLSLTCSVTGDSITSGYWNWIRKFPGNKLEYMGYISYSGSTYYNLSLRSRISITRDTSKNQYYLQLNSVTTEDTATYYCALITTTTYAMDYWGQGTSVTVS
Sequence (VL, as listed by the source, chain 2 of 2): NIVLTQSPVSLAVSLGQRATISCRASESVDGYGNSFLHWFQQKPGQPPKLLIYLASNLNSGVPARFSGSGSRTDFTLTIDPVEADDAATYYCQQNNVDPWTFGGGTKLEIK

Substance	IC50 (read off the curve) [mg/L]
peptide corresponding to the WT AP33 epitope (aa residues 412-424 of E2) (from UniProt P27958 412-424)	0.1
